Reference: the Human Domainome abundance scans (Beltran et al. 2025)
± gives the uncertainty stated by the source.

B1: POU domain, class 3, transcription factor 1, residues 247 to 324; numbered along this chain, Q03052 (parent)
chain: EDAPSSDDLEQFAKQFKQRRIKLGFTQADVGLALGTLYGNVFSQTTICRFEALQLSFKNMCKLKPLLNKWLEETDSSS

Variants of: B1
Assay: abundance fitness (aPCA) (normalised: wild type 0, dead -1); higher = more abundant; growth selection in yeast, the domain comes from the species named
Details: Homo sapiens

Abundance fitness: each site, then its substitutions
Q27: C 0.069 ± 0.12; S -0.369 ± 0.1; I 0.045 ± 0.13; P -0.053 ± 0.082; F -0.325 ± 0.37; D -0.836 ± 0.49; H 0.217 ± 0.12; E 0.03 ± 0.079; K -0.257 ± 0.15; G -0.595 ± 0.082; W -0.209 ± 0.11; M -0.288 ± 0.12; V -0.171 ± 0.074; A -0.051 ± 0.074; T -0.062 ± 0.097; R -0.49 ± 0.078; L -0.356 ± 0.088
F12: Q -0.844 ± 0.31; W -0.362 ± 0.12; T -1.16 ± 0.46; S -0.544 ± 0.14; N -0.192 ± 0.3; G -1.11 ± 0.23; V -0.55 ± 0.14; I -0.553 ± 0.45; P -0.492 ± 0.2; A -0.391 ± 0.12; C -0.881 ± 0.39; R -0.62 ± 0.12; L -0.547 ± 0.13; E -0.738 ± 0.31
I21: M -0.236 ± 0.082; A -0.391 ± 0.089; G -0.689 ± 0.085; Y 0.147 ± 0.17; K -0.349 ± 0.12; E 0.005 ± 0.073; D -0.527 ± 0.21; R -0.338 ± 0.061; L -0.184 ± 0.061; Q -0.178 ± 0.095; F -0.827 ± 0.41; C -0.521 ± 0.16; H -0.64 ± 0.29; W -0.544 ± 0.12; P -1.18 ± 0.3
R19: W -0.484 ± 0.12; M 0.023 ± 0.1; G -0.495 ± 0.079; T -0.04 ± 0.081; N -0.071 ± 0.2; H -0.456 ± 0.21; K 0.259 ± 0.11; L -0.613 ± 0.13; S -0.232 ± 0.085; V -0.586 ± 0.11; I -0.212 ± 0.18; Q -0.218 ± 0.09; P -0.79 ± 0.2; E -0.36 ± 0.12
L32: C 0.095 ± 0.1; P -0.898 ± 0.22; G -0.372 ± 0.057; K 0.086 ± 0.074; M -0.039 ± 0.074; I 0.163 ± 0.089; H 0.033 ± 0.12; F 0.186 ± 0.15; D 0.182 ± 0.11; N -0.371 ± 0.2; E -0.017 ± 0.066
L23: E -0.47 ± 0.15; D -0.301 ± 0.2; C -0.629 ± 0.16; S -0.59 ± 0.13; F -0.219 ± 0.15; M 0.124 ± 0.072; W -0.224 ± 0.09; V -0.686 ± 0.11; A -0.226 ± 0.075; G -0.56 ± 0.12; R -0.313 ± 0.068; Q -0.31 ± 0.12; T -0.647 ± 0.17; I -1 ± 0.49
Q15: K -0.118 ± 0.085; E -0.092 ± 0.082; V -0.078 ± 0.06; N 0.301 ± 0.16; S -0.014 ± 0.079; I 0.2 ± 0.21; F -0.122 ± 0.37; R -0.047 ± 0.053; L -0.184 ± 0.076; T -0.112 ± 0.1; C -0.342 ± 0.16; H -0.075 ± 0.14; M 0.124 ± 0.075; G -0.18 ± 0.056; W -0.288 ± 0.12; A -0.067 ± 0.065; D 0 ± 0.12; P -0.745 ± 0.21
Q18: D -0.259 ± 0.31; C -0.428 ± 0.24; V -0.316 ± 0.083; K 0.138 ± 0.087; S -0.027 ± 0.072; H 0.031 ± 0.12; E 0.028 ± 0.068; F -0.304 ± 0.48; L -0.25 ± 0.074; R -0.204 ± 0.064; A 0.074 ± 0.059; W -0.245 ± 0.1; T -0.034 ± 0.083; P -1.16 ± 0.48; Y -0.824 ± 0.36; N -0.276 ± 0.17; M -0.472 ± 0.15
A28: Q -0.225 ± 0.1; D -0.317 ± 0.26; W -0.371 ± 0.09; T -0.037 ± 0.076; L -0.405 ± 0.075; R 0.069 ± 0.047; K -0.111 ± 0.11; G -0.083 ± 0.052; I -0.608 ± 0.46; M -0.149 ± 0.083; C -0.239 ± 0.12; H -0.24 ± 0.21; S -0.237 ± 0.077; Y -0.213 ± 0.16; N -0.285 ± 0.35; P -0.758 ± 0.21; E -0.008 ± 0.064; V -0.495 ± 0.093
K22: R -0.035 ± 0.048; Y 0.071 ± 0.2; G -0.349 ± 0.061; A 0.058 ± 0.057; F -0.32 ± 0.19; V -0.428 ± 0.094; T -0.106 ± 0.084; H 0.068 ± 0.24; I -0.743 ± 0.42; L -0.128 ± 0.066; C -0.347 ± 0.13; D 0.038 ± 0.085; P -1.04 ± 0.28; W -0.537 ± 0.12; N 0.126 ± 0.12
A13: I -0.43 ± 0.14; G -0.828 ± 0.14; M -0.383 ± 0.17; E -0.416 ± 0.14; T -0.691 ± 0.18; V -0.047 ± 0.063; D -1.07 ± 0.45; K -0.402 ± 0.15; S -0.53 ± 0.1; C 0.113 ± 0.086; F -0.972 ± 0.41; Y -0.505 ± 0.2; W -0.903 ± 0.27
T26: A -0.497 ± 0.097; I -0.951 ± 0.41; W -0.998 ± 0.27; D -0.86 ± 0.41; P -0.919 ± 0.3; E -0.298 ± 0.12; H -0.15 ± 0.23; M -0.559 ± 0.2; G -0.456 ± 0.083; L -0.699 ± 0.16; N -0.436 ± 0.22; S -0.093 ± 0.075; K -0.746 ± 0.26; Q -0.192 ± 0.27; V -0.724 ± 0.14
R20: E -0.845 ± 0.19; A -0.653 ± 0.13; D -0.645 ± 0.46; F -0.353 ± 0.3; S -0.813 ± 0.17; V -0.636 ± 0.11; I -0.971 ± 0.44; T -0.815 ± 0.21; W -0.973 ± 0.24; Q -0.733 ± 0.22; K -1.11 ± 0.43; H -0.508 ± 0.32; P -0.744 ± 0.24; M -0.915 ± 0.27; G -0.896 ± 0.13; L -0.637 ± 0.11
D29: A -0.134 ± 0.07; V -0.679 ± 0.12; L -0.547 ± 0.11; T -0.512 ± 0.14; S -0.28 ± 0.087; R -0.316 ± 0.065; M -0.654 ± 0.17; H -0.213 ± 0.17; Q 0.184 ± 0.09; C -0.592 ± 0.19; G -0.241 ± 0.058; K -0.057 ± 0.095; P -0.614 ± 0.16; F -0.835 ± 0.47; N -0.729 ± 0.39; W -0.631 ± 0.12
K17: D -0.893 ± 0.38; C -0.868 ± 0.34; W -0.879 ± 0.24; M -0.269 ± 0.12; R 0.007 ± 0.05; H -0.066 ± 0.18; S -0.354 ± 0.1; I 0.048 ± 0.2; T -0.001 ± 0.1; Q 0.035 ± 0.095; P -0.667 ± 0.25; A -0.178 ± 0.067; E -0.8 ± 0.2
F25: N -0.531 ± 0.24; K -0.095 ± 0.094; Y 0.112 ± 0.14; M -0.276 ± 0.13; G -0.859 ± 0.15; S -0.505 ± 0.12; V -0.31 ± 0.086; P -0.965 ± 0.25; C -0.217 ± 0.13; Q -0.511 ± 0.14; D -0.811 ± 0.45; I -0.404 ± 0.2; W -0.536 ± 0.14; L -0.12 ± 0.069; R -0.342 ± 0.072
F16: T -0.429 ± 0.16; L -0.633 ± 0.14; G -0.572 ± 0.089; K -0.61 ± 0.19; W -0.736 ± 0.15; M -0.612 ± 0.23; V -0.515 ± 0.1; Q -0.541 ± 0.19; E -0.585 ± 0.19; I -0.532 ± 0.25; N -0.713 ± 0.37; R -0.621 ± 0.084; D -0.83 ± 0.28; P -0.789 ± 0.23; A -0.779 ± 0.15
K14: R -0.195 ± 0.064; S -0.492 ± 0.1; I -0.19 ± 0.17; P -0.573 ± 0.26; L -0.159 ± 0.076; T -0.03 ± 0.1; F -0.386 ± 0.18; Y -0.233 ± 0.13; N -0.211 ± 0.15; Q 0.048 ± 0.084; H 0.468 ± 0.16; W -0.419 ± 0.11; D -0.78 ± 0.35; E -0.053 ± 0.077; C -0.27 ± 0.12
V30: P -0.787 ± 0.19; C -0.319 ± 0.25; Q -0.759 ± 0.28; T -0.807 ± 0.21; N -0.281 ± 0.28; A -0.411 ± 0.1; F -0.485 ± 0.23; I -0.055 ± 0.13; E -0.601 ± 0.18; G -0.957 ± 0.14; L -0.175 ± 0.081; K -0.425 ± 0.14; H -0.303 ± 0.26; W -0.386 ± 0.11; M -0.65 ± 0.21; R -0.975 ± 0.14
G31: K -0.702 ± 0.22; E -0.18 ± 0.095; A 0.161 ± 0.062; N -0.437 ± 0.25; Y -0.957 ± 0.4; M -0.494 ± 0.18; D -0.417 ± 0.19; T -0.085 ± 0.2; P -0.983 ± 0.29; S 0.04 ± 0.069; Q -0.337 ± 0.11; R -0.46 ± 0.073; W -0.444 ± 0.1; H -0.228 ± 0.4; V -0.262 ± 0.07; L -0.509 ± 0.13
Q11: Y -0.269 ± 0.14; T 0.036 ± 0.099; S -0.002 ± 0.07; P -0.299 ± 0.12; H 0.121 ± 0.17; G -0.272 ± 0.055; N 0.001 ± 0.15; K 0.057 ± 0.077; V -0.032 ± 0.052; I 0.134 ± 0.21; D 0.07 ± 0.095; C -0.266 ± 0.15; M -0.213 ± 0.095; E -0.002 ± 0.072; W -0.707 ± 0.1; F -0.093 ± 0.17; R -0.149 ± 0.054
G24: Q -0.796 ± 0.19; L -0.726 ± 0.12; A -0.739 ± 0.13; M -0.78 ± 0.25; R -0.75 ± 0.1; S -0.454 ± 0.1; I -1.02 ± 0.44; K -0.423 ± 0.15; N -0.587 ± 0.22; D -0.7 ± 0.39; W -0.806 ± 0.19; T -0.805 ± 0.2; V -1.01 ± 0.17; P -0.73 ± 0.21
